Broadly, the stoichiometry N is the number of molecules, sites or subunits per partner or assembly.

Consider one molecule from publication PMC6821171, “LYAR potentiates rRNA synthesis by recruiting BRD2/4 and the MYST-type acetyltransferase KAT7 to rDNA” (Nucleic Acids Research, 2019).

The target of this experiment is T1, peptide LYAR_(175-219) (human, UniProt Q9NX58 175-219).
T1 construct: LYAR, human, residues 175-219
Briefly: ITC; peptide BRD2 489-540 with peptide LYAR 175-219 (Supplementary Figure S5E). Particulars: both partners purified. A general note: In ITC the heat of successive injections is recorded.

B1: peptide BRD2_(489-540) (peptide, UniProt P25440 489-540, looked up)
peptide: SSSEEEEEEDEEDEEEEESESSDSEEERAHRLAELQEQLRAVHEQLAALSQG
notes: Bromodomain-containing protein 2, human, residues 489-540
For B1, the “stoichiometry N” value stood at 1.
